Results from patent US20220143204A1 (LINXIS B V, published 2022).

Tests used:
human IGF2R on cells = molecular target: T1, human IGF2R on cells (human, UniProt P11717 41-2491); assay: binding assay on SCC VII cells over-expressing human IGF2R
T1 construct: whole, on cells; On SCC VII cells over-expressing human IGF2R, NIH 3T3 2.2 cells transiently transfected with hIGF2R, or A549 cells, as told under assay or readout; also called hIGF2R
Method: (§1) To determine whether 13F11-13E8 is cross-reactive against rIGF2R, the construct was conjugated to IRDye800CW (13F11-13E8-IRDye800CW, conjugation method as described in example 9.2) and the binding affinity was determined using a binding assay on SCC VII cells over-expressing either human, or rat IGF2R (FIG. 12).

rat IGF2R on cells = molecular target: T2, rat IGF2R on cells (rat, UniProt A0A8I6GLL6 43-2479); assay: binding assay on SCC VII cells over-expressing rat IGF2R
T2 construct: whole, on cells; also called rIGF2R
Method: as §1

[1] = molecular target: T3, human PDGFRB on LX-2 cells (human, UniProt P09619); assay: binding assay on the human hepatic stellate cell line LX-2 (Example 4)
T3 construct: full-length receptor on the cell surface; The list has human PDGFRB only on SCC VII cells
T3 sequence (P09619 33-1106 limits assumed): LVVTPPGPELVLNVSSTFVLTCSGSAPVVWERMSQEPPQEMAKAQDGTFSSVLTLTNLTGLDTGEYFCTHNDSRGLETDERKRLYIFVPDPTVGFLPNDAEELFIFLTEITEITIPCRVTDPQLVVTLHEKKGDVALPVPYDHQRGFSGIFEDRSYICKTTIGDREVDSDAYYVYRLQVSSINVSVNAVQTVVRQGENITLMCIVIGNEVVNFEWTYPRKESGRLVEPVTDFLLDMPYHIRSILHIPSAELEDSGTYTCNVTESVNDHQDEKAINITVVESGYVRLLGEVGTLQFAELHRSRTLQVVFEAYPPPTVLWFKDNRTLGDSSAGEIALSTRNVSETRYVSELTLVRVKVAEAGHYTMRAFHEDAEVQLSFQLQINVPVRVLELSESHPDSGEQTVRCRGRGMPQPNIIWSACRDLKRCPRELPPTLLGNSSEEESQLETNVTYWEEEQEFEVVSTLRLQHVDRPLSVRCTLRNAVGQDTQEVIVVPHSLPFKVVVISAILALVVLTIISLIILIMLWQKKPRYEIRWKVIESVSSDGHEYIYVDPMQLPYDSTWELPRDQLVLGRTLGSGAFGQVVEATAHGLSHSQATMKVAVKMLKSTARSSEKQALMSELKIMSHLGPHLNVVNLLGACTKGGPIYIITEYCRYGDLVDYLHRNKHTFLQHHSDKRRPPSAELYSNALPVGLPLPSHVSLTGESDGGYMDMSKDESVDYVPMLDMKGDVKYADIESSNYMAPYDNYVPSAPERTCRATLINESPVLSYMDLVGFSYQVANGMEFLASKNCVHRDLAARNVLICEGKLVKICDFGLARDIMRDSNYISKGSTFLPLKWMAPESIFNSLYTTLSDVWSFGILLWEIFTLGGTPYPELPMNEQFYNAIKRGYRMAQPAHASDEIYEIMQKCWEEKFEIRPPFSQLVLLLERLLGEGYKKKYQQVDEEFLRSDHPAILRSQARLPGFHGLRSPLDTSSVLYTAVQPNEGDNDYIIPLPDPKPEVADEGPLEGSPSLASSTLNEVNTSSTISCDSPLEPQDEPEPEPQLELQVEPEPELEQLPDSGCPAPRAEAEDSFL

[2] = molecular target: T4, human PDGFRB on SCC VII cells (human, UniProt P09619 33-1106); assay: binding assay on SCC VII cells transfected with human PDGFRB-GFP, VHH detected with anti-VHH rabbit serum and IRDye800CW secondary antibody; binding in % (n=6) [left panel]
T4 construct: whole, on cells; also called hPDGFRB; SCC-hPDGFRB
T4 sequence (P09619 33-1106): as the sequence (P09619 33-1106 limits assumed) above
Method: (§2) FIG. 9. Binding of selected VHHs on SCC VII cells transfected with either the human or rat PDGFRB receptor (SCC-hP or SCC-rP) fused to GFP. The VHH is detected using anti-VHH rabbit serum and donkey-anti-rabbit secondary antibody labelled with IRDye800CW.
(§3) The results are summarized in FIGS. 5 and 6 for the hPDGFRB and rPDGFRB VHHs, respectively. […] Moreover, the binding affinities of the hPDGFRB VHHs human were also determined on the human hepatic stellate cell (HSC) line LX-2 (FIG. 5).

[3] = molecular target: T4, human PDGFRB on SCC VII cells; assay: binding assay on SCC VII cells transfected with human PDGFRB (Example 4)
[4] = molecular target: T5, human PDGFRB extracellular domain (human, UniProt P09619 33-532); assay: binding assay on immobilised human PDGFRB ectodomain, apparent affinity (Example 4)
T5 construct: extracellular domain; also called hPDGFRB-ECD; human PDGFRB ectodomain
T5 sequence (P09619 33-532): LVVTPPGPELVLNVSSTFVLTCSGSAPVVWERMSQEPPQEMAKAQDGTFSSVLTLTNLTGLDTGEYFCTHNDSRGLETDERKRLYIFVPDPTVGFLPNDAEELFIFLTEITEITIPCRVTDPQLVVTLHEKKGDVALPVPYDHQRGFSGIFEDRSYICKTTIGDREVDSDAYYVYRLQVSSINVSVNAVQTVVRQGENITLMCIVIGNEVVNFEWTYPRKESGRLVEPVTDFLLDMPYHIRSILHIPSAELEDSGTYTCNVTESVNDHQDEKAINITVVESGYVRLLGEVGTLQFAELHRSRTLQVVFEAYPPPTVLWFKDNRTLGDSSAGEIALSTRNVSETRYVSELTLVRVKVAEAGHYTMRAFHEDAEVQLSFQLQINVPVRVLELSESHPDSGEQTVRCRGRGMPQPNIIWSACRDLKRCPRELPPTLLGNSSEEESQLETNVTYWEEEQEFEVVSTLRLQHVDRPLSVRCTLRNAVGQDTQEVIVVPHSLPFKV

[5] = molecular target: T4, human PDGFRB on SCC VII cells; assay: binding assay of the IRDye800CW conjugate on SCC VII cells transfected with human PDGFRB, fluorescence at 800 nm
Method: (§4) Based on their high affinity and binding to non-overlapping hPDGRB epitopes, VHHs SP02P, SP12P SP14P and […] were selected for the design of biparatopic VHH constructs and produced in a similar way as described in example 6.1. (FIG. 15A). The binding affinities of the biparatopic constructs were determined with an ELISA assay with the periplasm (FIG. 15A). Moreover, based on their high affinity and binding to non-overlapping rPDGRB epitopes, VHHs SP26P and SP28P were selected for the design of a biparatopic VHH construct and produced in a similar way as described in example 6.1. The formed biparatopic SP28P-SP26P was conjugated to IRDye800CW (SP28P-SP26P-IRDye800CW conjugation method as described in example 9.2) and subjected to a binding assay SCC VII cells transfected with hPDGFRB, rPDGFRB or hIGF2R were performed (FIG. 15B). […] In order to create a biparatopic VHH construct which is cross-reactive for hPDGFRB and rPDGFRB, VHH SP02P binding to hPDGFRB and VHH SP026P binding to rPDGFRB were selected and the biparatopic construct SP02P-SP26P was produced in a similar way as described in example 6.1. (FIG. 15C). Construct SP02P-SP26P was conjugated to IRDye800CW (SP02P-SP26P-IRDye800CW, conjugation method as described in example 9.2) and subjected to bindings assays on SCC VII cells transfected with hPDGFRB, rPDGFRB or hIGF2R were performed (FIG. 15C).

[6] = molecular target: T6, rat PDGFRB on SCC VII cells (rat, UniProt Q05030 32-1097); assay: binding assay on SCC VII cells transfected with rat PDGFRB (Example 4)
T6 construct: whole, on cells; also called rPDGFRB; SCC-rPDGFRB

[7] = molecular target: T7, rat PDGFRB extracellular domain (rat, UniProt Q05030 32-531); assay: binding assay on immobilised rat PDGFRB ectodomain, apparent affinity (Example 4)
T7 construct: extracellular domain; also called rPDGFRB-ECD; rat PDGFRB ectodomain
T7 sequence (looked up): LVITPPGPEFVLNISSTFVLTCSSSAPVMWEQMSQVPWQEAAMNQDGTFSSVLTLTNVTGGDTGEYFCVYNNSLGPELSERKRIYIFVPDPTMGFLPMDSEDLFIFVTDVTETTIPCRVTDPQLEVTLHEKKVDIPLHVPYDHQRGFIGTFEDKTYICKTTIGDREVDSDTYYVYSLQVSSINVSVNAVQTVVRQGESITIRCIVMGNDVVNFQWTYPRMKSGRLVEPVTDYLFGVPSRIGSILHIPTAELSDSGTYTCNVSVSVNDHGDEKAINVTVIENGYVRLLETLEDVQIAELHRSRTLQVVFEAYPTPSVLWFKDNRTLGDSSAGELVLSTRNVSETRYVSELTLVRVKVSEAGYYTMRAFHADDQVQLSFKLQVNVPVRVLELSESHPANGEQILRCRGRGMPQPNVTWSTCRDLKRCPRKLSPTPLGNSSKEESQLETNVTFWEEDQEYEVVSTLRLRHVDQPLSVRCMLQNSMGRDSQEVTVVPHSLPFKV

[8] = molecular target: T6, rat PDGFRB on SCC VII cells; assay: binding assay on SCC VII cells transfected with rat PDGFRB-GFP, VHH detected with anti-VHH rabbit serum and IRDye800CW secondary antibody; binding in % (n=2) [right panel]
Method: as §2, §3

[9] = molecular target: T4, human PDGFRB on SCC VII cells; assay: binding assay on SCC VII cells transfected with hPDGFRB
Method: as §4

[10] = molecular target: T5, human PDGFRB extracellular domain; assay: binding and competition assays of Examples 4 and 5
PDGFRB ECD = assay: competition ELISA on PDGFRB ECD: unconjugated competitor titrated against SP26P-IRDye800, fluorescence at 800 nm
Sequence of PDGFRB ECD (P09619 33-532): as the sequence (P09619 33-532) above
Method: Competition ELISAs were carried out to determine whether the hPDGFRB specific binders (FIG. 5) and rPDGFRB specific binders (FIG. 6) recognize distinct epitopes on hPDGFRB or rPDGFRB, respectively. The hPDGFRB binding VHHs SP02P, SP05P, SP12P and SP14P and the rPDGFRB binder SP26P were conjugated to IRDye800CW (VHH-IRDye800CW, conjugation method as described in example 9.2) and each conjugated VHH was mixed with unconjugated competitor in trifold serial dilutions and incubated on immobilized […]. Two VHHs share (part of) the same epitope when the fluorescence signal of the VHH-IRDye800CW decreases upon increasing concentration of unconjugated VHH. Furthermore, using a similar method as described in section 5.1, binding epitope competition between the hPDGFRB binding VHH SP02P and rPDGFRB binding VHH SP26P was performed. No competition was observed between the two VHHs qualifying them as building blocks for biparatopic binding molecules (FIG. 11).

T1 sequence (P11717 41-2491): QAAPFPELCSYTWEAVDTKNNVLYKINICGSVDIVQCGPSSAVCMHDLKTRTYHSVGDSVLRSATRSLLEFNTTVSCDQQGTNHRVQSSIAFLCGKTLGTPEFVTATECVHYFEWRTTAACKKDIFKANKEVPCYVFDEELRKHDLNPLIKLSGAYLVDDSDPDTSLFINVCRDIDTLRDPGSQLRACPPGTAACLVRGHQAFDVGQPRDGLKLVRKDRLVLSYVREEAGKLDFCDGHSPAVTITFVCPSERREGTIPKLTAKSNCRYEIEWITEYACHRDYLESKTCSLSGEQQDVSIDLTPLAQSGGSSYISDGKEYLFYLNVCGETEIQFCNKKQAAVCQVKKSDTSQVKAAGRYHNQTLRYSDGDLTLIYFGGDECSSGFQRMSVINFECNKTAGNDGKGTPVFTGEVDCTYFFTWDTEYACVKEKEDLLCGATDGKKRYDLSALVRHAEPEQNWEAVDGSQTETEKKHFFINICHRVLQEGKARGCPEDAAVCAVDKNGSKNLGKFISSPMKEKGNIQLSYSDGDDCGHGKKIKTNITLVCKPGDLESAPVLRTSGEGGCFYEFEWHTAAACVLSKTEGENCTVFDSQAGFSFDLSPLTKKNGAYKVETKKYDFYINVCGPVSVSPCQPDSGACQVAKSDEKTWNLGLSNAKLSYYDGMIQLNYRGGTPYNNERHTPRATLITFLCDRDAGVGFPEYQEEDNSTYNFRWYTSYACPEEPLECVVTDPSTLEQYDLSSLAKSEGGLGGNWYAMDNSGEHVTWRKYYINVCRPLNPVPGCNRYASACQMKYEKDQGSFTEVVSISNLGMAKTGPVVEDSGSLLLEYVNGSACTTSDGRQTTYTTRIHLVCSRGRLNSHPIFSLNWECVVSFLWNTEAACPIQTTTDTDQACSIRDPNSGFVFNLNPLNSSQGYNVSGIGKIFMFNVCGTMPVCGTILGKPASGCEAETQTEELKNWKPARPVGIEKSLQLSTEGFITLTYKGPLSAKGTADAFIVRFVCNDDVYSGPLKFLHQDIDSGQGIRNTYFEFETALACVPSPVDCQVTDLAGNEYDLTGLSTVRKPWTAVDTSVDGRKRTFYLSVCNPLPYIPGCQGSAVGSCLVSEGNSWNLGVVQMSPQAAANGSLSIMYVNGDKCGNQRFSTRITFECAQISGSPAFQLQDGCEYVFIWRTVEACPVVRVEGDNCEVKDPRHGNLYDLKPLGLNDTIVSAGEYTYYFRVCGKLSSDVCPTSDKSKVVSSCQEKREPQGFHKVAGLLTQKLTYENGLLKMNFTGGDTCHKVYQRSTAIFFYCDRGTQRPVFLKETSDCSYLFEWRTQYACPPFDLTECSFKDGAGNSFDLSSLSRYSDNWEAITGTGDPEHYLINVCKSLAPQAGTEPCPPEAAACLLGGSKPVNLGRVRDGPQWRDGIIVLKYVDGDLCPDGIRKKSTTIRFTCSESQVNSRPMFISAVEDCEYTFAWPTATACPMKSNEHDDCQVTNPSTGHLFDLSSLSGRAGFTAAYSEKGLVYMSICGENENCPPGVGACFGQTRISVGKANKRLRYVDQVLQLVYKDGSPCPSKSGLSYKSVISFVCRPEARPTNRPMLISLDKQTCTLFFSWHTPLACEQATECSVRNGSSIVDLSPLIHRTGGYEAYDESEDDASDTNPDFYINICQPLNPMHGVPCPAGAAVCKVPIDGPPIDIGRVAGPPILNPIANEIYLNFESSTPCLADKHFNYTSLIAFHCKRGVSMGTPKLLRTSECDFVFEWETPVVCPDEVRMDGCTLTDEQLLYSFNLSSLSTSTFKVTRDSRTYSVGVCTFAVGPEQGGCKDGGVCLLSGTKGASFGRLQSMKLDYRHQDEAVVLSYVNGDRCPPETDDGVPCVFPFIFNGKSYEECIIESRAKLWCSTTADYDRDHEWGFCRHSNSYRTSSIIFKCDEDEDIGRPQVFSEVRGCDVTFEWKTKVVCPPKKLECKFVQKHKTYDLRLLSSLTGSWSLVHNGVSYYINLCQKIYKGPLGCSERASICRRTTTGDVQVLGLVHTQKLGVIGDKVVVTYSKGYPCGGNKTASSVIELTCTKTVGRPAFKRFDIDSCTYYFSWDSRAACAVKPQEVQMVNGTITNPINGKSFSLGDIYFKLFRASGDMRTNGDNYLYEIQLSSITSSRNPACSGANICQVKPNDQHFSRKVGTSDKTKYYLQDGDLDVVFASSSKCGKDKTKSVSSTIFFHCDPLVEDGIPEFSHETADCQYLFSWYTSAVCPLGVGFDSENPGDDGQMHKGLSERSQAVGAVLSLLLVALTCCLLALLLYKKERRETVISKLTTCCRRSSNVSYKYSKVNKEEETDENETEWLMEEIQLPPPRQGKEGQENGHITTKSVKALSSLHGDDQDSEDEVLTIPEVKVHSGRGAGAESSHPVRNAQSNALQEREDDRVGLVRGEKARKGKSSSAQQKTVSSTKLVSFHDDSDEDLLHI

B1: 13F11-13E8-IRDye800CW (VHH, not shown: small tags and cut ends)
chain: EVQLVESGGRLVQPGDSLRLSCAASGRTFSDNAMGWFRQAPGKERRFVAGISWAGGSTYYSDSVKGRFTISRDNAKNTVYLQMNSLKPEDTAVYYCAAGLRAWVQRMPKDYNYWGQGTQVTVSSGGGGSGGGGSGGGGSEVQLVESGGGLVQAGGSLRLSCAASRSISPMGWYRQAPGKQRELVAIMPSSGPPIYADSVQGRFTISRDNAKNTVYLQMNSLKPEDTAVYYCNVGGGYWGQGTQVTVSS
modifications: IRDye800CW by maleimide chemistry on the C-terminal free cysteine
notes: Biparatopic tandem VHH; also called IRD800CW conjugated 13F11-13E8; F11E8
Human IGF2R on cells
  Kd: < 10 nM
Rat IGF2R on cells
  Kd: < 10 nM

B2: SP02P (VHH)
VHH: EVQLVESGGGLVQAGGSLRLSCAASESISSIEQMGWFRQAPGKQRALVAINTYGGRTVYTNSVEGRFTMSRDSAKNMVYLQMTSLEPEDTAVYYCYAQTTAWRGGVWGQGTQVTVSS
notes: Llama VHH; on phage in the phage ELISA
[1]
  Kd: 6.7 nM
[2]
  EC50 (read off the curve): ~4 nM
[3]
  Kd: 4.1 nM
[4]
  Kd: 6.2 nM

B3: SP28P-SP26P-IRDye800CW (VHH, not shown: small tags and cut ends)
chain: EVQLVESGGGLVQAGGSLRLSCAASGSIVSFNGINWYRQAPGKQREWVGGITQGGNTMYADSVRGRFTISRDNTKNTMYLQMNSLKPEDTAVYYCRRPPVASWGQGTQVTVSSGGGGSGGGGSGGGGSEVQLVESGGGLVQAGGSLRLSCAASGRSFSSSVMGWFRQTPGKEREFVAATRWTAASTHYADSVKGRFTISRDHAENAVFLQMNSLKPEDTAVYYCAAGNYLDTAQYRYNYWGQGTQVTVSS
modifications: IRDye800CW by maleimide chemistry on the C-terminal free cysteine
notes: Biparatopic tandem VHH; also called SP28-SP26P; SP28-26P
[5]
  Kd: 32.4 nM

B4: SP28P (VHH)
VHH: EVQLVESGGGLVQAGGSLRLSCAASGSIVSFNGINWYRQAPGKQREWVGGITQGGNTMYADSVRGRFTISRDNTKNTMYLQMNSLKPEDTAVYYCRRPPVASWGQGTQVTVSS
notes: as for B2
[6]
  Kd: 0.5 nM
[7]
  Kd: 6 nM
[8]
  EC50 (read off the curve): ~0.6 nM

B5: SP02P-SP26P-IRDye800CW (VHH, not shown: small tags and cut ends)
chain: EVQLVESGGGLVQAGGSLRLSCAASESISSIEQMGWFRQAPGKQRALVAINTYGGRTVYTNSVEGRFTMSRDSAKNMVYLQMTSLEPEDTAVYYCYAQTTAWRGGVWGQGTQVTVSSGGGGSGGGGSGGGGSEVQLVESGGGLVQAGGSLRLSCAASGRSFSSSVMGWFRQTPGKEREFVAATRWTAASTHYADSVKGRFTISRDHAENAVFLQMNSLKPEDTAVYYCAAGNYLDTAQYRYNYWGQGTQVTVSS
modifications: IRDye800CW by maleimide chemistry on the C-terminal free cysteine
notes: Biparatopic tandem VHH
[5]
  Kd: 2.2 nM
[9]
  Kd: < 5 nM

B6: SP26P (VHH)
VHH: EVQLVESGGGLVQAGGSLRLSCAASGRSFSSSVMGWFRQTPGKEREFVAATRWTAASTHYADSVKGRFTISRDHAENAVFLQMNSLKPEDTAVYYCAAGNYLDTAQYRYNYWGQGTQVTVSS
notes: Llama VHH; on phage in the phage ELISA; also called SP026P
[10]
  binding result: binds
PDGFRB ECD
  IC50 (read off the curve): ~40 nM
